Here are results for five molecules from article PMC5624731 (2018).

A word on the Kd: it is a measure of binding affinity in units of concentration. Lower therefore signals higher affinity.

Common to all, as to assay: nESI-MS
Assay [1] addresses PCBP1 (Homo sapiens, UniProt Q15365).
Assay [2] addresses PCBP1 (apo) (Homo sapiens, UniProt Q15365).
In assay [3] the target is Ferredoxin (Spinacia oleracea, UniProt P00221).
Ferredoxin, sequence (P00221 51-147): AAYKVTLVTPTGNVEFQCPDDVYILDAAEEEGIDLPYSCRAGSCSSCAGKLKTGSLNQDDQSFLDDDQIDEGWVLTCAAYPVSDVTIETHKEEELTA

PCBP1, sequence (Q15365 whole entry): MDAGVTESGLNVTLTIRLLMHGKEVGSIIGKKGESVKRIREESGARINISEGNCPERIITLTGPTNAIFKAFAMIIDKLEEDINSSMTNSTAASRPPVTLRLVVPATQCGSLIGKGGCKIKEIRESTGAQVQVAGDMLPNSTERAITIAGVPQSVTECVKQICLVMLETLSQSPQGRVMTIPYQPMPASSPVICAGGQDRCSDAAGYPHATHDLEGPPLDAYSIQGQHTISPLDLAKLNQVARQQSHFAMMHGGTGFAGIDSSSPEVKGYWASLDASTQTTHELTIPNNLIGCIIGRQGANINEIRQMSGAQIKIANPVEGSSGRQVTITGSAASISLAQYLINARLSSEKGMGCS
PCBP1 (apo), sequence (Q15365 whole entry): as above

B1: HDAC8 (Zn) (protein)
chain: MEEPEEPADSGQSLVPVYIYSPEYVSMCDSLAKIPKRASMVHSLIEAYALHKQMRIVKPKVASMEEMATFHTDAYLQHLQKVSQEGDDDHPDSIEYGLGYDCPATEGIFDYAAAIGGATITAAQCLIDGMCKVAINWSGGWHHAKKDEASGFCYLNDAVLGILRLRRKFERILYVDLDLHHGDGVEDAFSFTSKVMTVSLHKFSPGFFPGTGDVSDVGLGKGRYYSVNVPIQDGIQDEKYYQICESVLKEVYQAFNPKAVVLQLGADTIAGDPMCSFNMTPVGIGKCLKYILQWQLATLILGGGGYNLANTARCWTYLTGVILGKTLSSEIPDHEFFTAYGPDYVLEITPSCRPDRNEPHRIQQILNYIKGNLKHVV
modifications: Zn2+-bound HDAC8
Take B1: the affinity in assay [1], expressed as Kd, was 60 µM.

B2: HDAC8 (protein)
chain: B1 chain
In turn, B2 had a Kd in assay [1] of 63 µM.

B3: HDAC8 (Fe) (protein)
chain: B1 chain
modifications: Fe2+-bound HDAC8
Take B3: in assay [1], the Kd came to 44 µM. This Kd and that of the molecule before are within 1.5-fold of each other.

B4: HDAC8 (apo) (protein)
chain: B1 chain
In assay [2], B4 had a Kd of 68 µM.

B5: Ferredoxin-NADP+ reductase (protein)
chain: QIASDVEAPPPAPAKVEKHSKKMEEGITVNKFKPKTPYVGRCLLNTKITGDDAPGETWHMVFSHEGEIPYREGQSVGVIPDGEDKNGKPHKLRLYSIASSALGDFGDAKSVSLCVKRLIYTNDAGETIKGVCSNFLCDLKPGAEVKLTGPVGKEMLMPKDPNATIIMLGTGTGIAPFRSFLWKMFFEKHDDYKFNGLAWLFLGVPTSSSLLYKEEFEKMKEKAPDNFRLDFAVSREQTNEKGEKMYIQTRMAQYAVELWEMLKKDNTYFYMCGLKGMEKGIDDIMVSLAAAEGIDWIEYKRQLKKAEQWNVEVY
B5 displayed a Kd in assay [3] of 16 µM.
